Experimental data published in patent US12065505B2, “Antibodies and antigen binding peptides for factor XIa inhibitors and uses thereof” (Bristol-Myers Squibb Company, priority 2021, dated 2024).

What was measured:
[1] = SPR (Biacore) on chip coated with BSA conjugated to COMPOUND 2; assay type: binding; settings: Fab over COMPOUND 2-BSA surface; for Ka / koff, dissociation rate constant: apparent; for Kd: apparent affinity
Method: The binding of the first round affinity matured antibody Fab fragments to conjugated versions of Compound A was examined by SPR (Biacore™) using a CM5 S-series sensor chip (Cytiva, Cat. No. 29149603) coated with BSA previously conjugated to COMPOUND 2, COMPOUND 3 or COMPOUND 1. The immobilization level was 150-250 RUs. The running buffer was 1×PBS (phosphate buffered saline, pH 7.4) with 0.05% Tween 20. […] The antibody Fab fragment at a concentration of between 200-0.8 nM was injected over the BSA-compound coated surface for 2 minutes at a flow rate of 30 uL/min. The antibody Fab fragment was then allowed to dissociate for 15 minutes. The chip surface was regenerated after each cycle with a 1 minute pulse of 10 mM Glycine, pH 2, and a 1 minute pulse of 50 mM NaOH. All experiments were run on the same equipment and analyzed with the same software as described before. Apparent affinities were determined for rank ordering only since dissociation rates were too slow to be measured by Biacore. Comparative experiments with selected mAbs were also conducted in a similar fashion (see FIG. 11).

[2] = Thermal stability by Differential Scanning Calorimetry; assay type: physicochemical; settings: DSC; Fab 1 mg/ml
Method: Thermal stability analysis was performed with UNchained Labs UNcle™/Tagg analysis with Fabs at a concentration of 20 uM with or without Compound A at a concentration of 50 uM (or control compound). Capillaries were scanned from 25 to 90° C. at 0.5° C./min. In addition, select Fabs were also analyzed by Differential Scanning calorimetry analysis using the Malvern MicroCal VP-Capillary DSC. Samples were buffer matched and loaded with Fabs at a concentration of 10 uM with or without Compound A at a concentration of 15 uM (or control compound). Scan temperature range was 15-110° C. at a rate of 60° C./Hr (Filter period: 16 sec, Gain: None). Sample analysis was using software provided by the manufacturer for both the UNcle and the Malvern Capillary DSC. FIG. 15 and Table 14 below show representative DSC results.

[3] = Kinetic Exclusion Assay (KinExA) solution affinity; assay type: binding; settings: for KinExA Ka: complex association rate, 200 pM Fab and 400 pM Compound A; for Kd: solution affinity for Compound A, Fab 100, 200, 300 pM, equilibrated 24-72 hours
Method: The solution affinity of the antibody Fab fragments disclosed herein for Compound A was measured using a Kinetic Exclusion Assay (KinExA). […] The relative unbound concentration of 26D5 affinity matured antibody Fab fragment was measured by capture on a streptavidin coated bead with COMPOUND 5 followed by detection with a fluorescently labeled antibody that recognizes the human IgG Fab. Kinetic analysis to determine the complex association rate was measured with the same assay format except that a single tube of the mixture was prepared (200 pM Fab and 400 pM Compound A) and time points were removed immediately (no equilibration). Two Fabs, 26D5-75229-343-A10-Fab-SHORT and 26D5-75616-348-F10-Fab-SHORT, were identified as the top two Fabs by DSC thermal stability and KinExA analysis. Antibody Fab fragment 26D5-75616-348-F10-Fab-SHORT (SEQ ID NO: 106 and SEQ ID NO: 164; see Table 3) was selected for X-ray crystallography as described below and in vivo studies as described in Example 12.

koff, dissociation rate constant ([1]; 37° C.) [s⁻¹] | Kd ([1]; 37° C.) [nM] | Molecule | Ka ([1]; 37° C.) [M⁻¹ s⁻¹] | Tm1 (° C.) [2] [°C] | also measured
0.001 | 1.3 | 24H1-GQTV-Fab-LONG: antibody Fab fragment; VH SEQ ID NO: 80, VL SEQ ID NO: 98; sequence in Table 3 (antibody, V domains shown) VH: EVQLVESGGGLIQPGGSLRLSCAASGFTVSRNYMSWVRQAPGKGLEWVSFIYSGGSTYYADSVKGRFTISRDNSKNTLYLQMNSLRAEDTAVYYCARGGFGGGDYWGQGTLVTVSS VL: DIQMTQSPSSVSASVGDRVTITCRASQGISSWLAWYQHKPGKAPKLLIYAASSLQSGVPSRFSGSGSGTDFTLTISSLQPEDFATYYCQQANSFPLTFGGGTKVEIK | 790000 |  | 
 |  | 26D5-295-C08-Fab-SHORT: antibody Fab fragment; VH SEQ ID NO: 62, VL SEQ ID NO: 88; sequence in Table 3 (antibody, V domains shown) VH: EVQLVESGGGLIQPGGSLRLSCAASGFQVSSNAMSWVRQAPGKGLEWVSFIYPGGRTYYADSVKGRFTISRDNSKNTLYLQMNSLRAEDTAVYYCARGGFGGGDYWGQGTLVTVSS VL: DIQMTQSPSSVSASVGDRVTITCRASQGISSNLAWYQQKPGKAPKLLIYAASSLQSGVPSRFSGSGSGTDFTLTISSLQPEDFATYYCQQANSFPLTFGGGTKVEIK |  | 75.3 | 
 |  | 26D5-75203-343-B09-Fab-SHORT: antibody Fab fragment; VH SEQ ID NO: 54, VL SEQ ID NO: 87; sequence in Table 3 (antibody, V domains shown) VH: EVQLVESGGGLIQPGGSLRLSCAASGFTVSSNAMSWVRQAPGKGLEWVSYIYPGGRTYYADSVKGRFTISRDNSKNTLYLQMNSLRAEDTAVYYCARAGFGGGDYWGQGTLVTVSS VL: DIQMTQSPSSVSASVGDRVTITCRASQGISSNLAWYQQKPGKAPKLLIYAASTLQSGVPSRFSGSGSGTDFTLTISSLQPEDFATYYCQQANEFPLTFGGGTKVEIK |  | 76.6 | KinExA Ka [3]: 14000 M⁻¹ s⁻¹; Kd [3]: 0.01 nM
0.0016 | 1.3 | 26D5-GVR-Q-FT-Fab-LONG: antibody Fab fragment; VH SEQ ID NO: 81, VL SEQ ID NO: 99; sequence in Table 3 (antibody, V domains shown) VH: EVQLVESGGGLIQPGGSLRLSCAASGFTVSRNYMSWVRQAPGKGLEWVSFIYSGGRTYYADSVKGRFTISRDNSKNTLYLQMNSLRAEDTAVYYCARGGFGGGDYWGQGTLVTVSS VL: DIQMTQSPSSVSASVGDRVTITCRASQGISSWLAWYQQKPGKAPKLLIYAASSLQSGVPSRFSGSGSGTDFTLTISSLQPEDFATYYCQQANSFPLTFGGGTKVEIK | 1.3e+06 |  | 
0.00022 | 0.8 | 26D5-295-B08-Fab-LONG: antibody Fab fragment; VH SEQ ID NO: 60, VL SEQ ID NO: 88; sequence in Table 3 (antibody, V domains shown) VH: EVQLVESGGGLIQPGGSLRLSCAASGFTVSSNAMSWVRQAPGKGLEWVSFIYPGGRTYYADSVKGRFTISRDNSKNTLYLQMNSLRAEDTAVYYCARAGFGGGDYWGQGTLVTVSS VL: DIQMTQSPSSVSASVGDRVTITCRASQGISSNLAWYQQKPGKAPKLLIYAASSLQSGVPSRFSGSGSGTDFTLTISSLQPEDFATYYCQQANSFPLTFGGGTKVEIK | 280000 |  | 
8.5e-05 | 0.3 | 26D5-295-C08-Fab-LONG: antibody Fab fragment; VH SEQ ID NO: 62, VL SEQ ID NO: 88; sequence in Table 3 (antibody, V domains shown) VH: EVQLVESGGGLIQPGGSLRLSCAASGFQVSSNAMSWVRQAPGKGLEWVSFIYPGGRTYYADSVKGRFTISRDNSKNTLYLQMNSLRAEDTAVYYCARGGFGGGDYWGQGTLVTVSS VL: DIQMTQSPSSVSASVGDRVTITCRASQGISSNLAWYQQKPGKAPKLLIYAASSLQSGVPSRFSGSGSGTDFTLTISSLQPEDFATYYCQQANSFPLTFGGGTKVEIK | 280000 |  | 
 |  | 26D5-75768-348-A10-Fab-SHORT: antibody Fab fragment; VH SEQ ID NO: 56, VL SEQ ID NO: 89; sequence in Table 3 (antibody, V domains shown) VH: EVQLVESGGGLIQPGGSLRLSCAASGFTVSSNAVSIVRQAPGKGLEWVAYIYPGGRTYYADSVKGRFTISRDNSKNTLYLQMNSLRAEDTAVYYCTIGGFGGGDYWGQGTLVTVSS VL: DIQMTQSPSSVSASVGDRVTITCRASQGISSNNQWYQQKPGKAPKLLIYYASSLQSGVPSRFSGSGSGTDFTLTISSLQPEDFATYYCQQGNEFPLTFGGGTKVEIK |  | 66.3 | Tm2 (° C.) [2]: 74.1 °C
0.0013 | 0.9 | 26D5-GVR-Q-FT-Fab-SHORT: antibody Fab fragment; VH SEQ ID NO: 81, VL SEQ ID NO: 99; sequence in Table 3 (antibody, V domains shown) VH: EVQLVESGGGLIQPGGSLRLSCAASGFTVSRNYMSWVRQAPGKGLEWVSFIYSGGRTYYADSVKGRFTISRDNSKNTLYLQMNSLRAEDTAVYYCARGGFGGGDYWGQGTLVTVSS VL: DIQMTQSPSSVSASVGDRVTITCRASQGISSWLAWYQQKPGKAPKLLIYAASSLQSGVPSRFSGSGSGTDFTLTISSLQPEDFATYYCQQANSFPLTFGGGTKVEIK | 1.6e+06 |  | 
0.001 | 3.5 | 26D5-GVR-H-Fab-LONG: antibody Fab fragment; VH SEQ ID NO: 81, VL SEQ ID NO: 98; sequence in Table 3 (antibody, V domains shown) VH: EVQLVESGGGLIQPGGSLRLSCAASGFTVSRNYMSWVRQAPGKGLEWVSFIYSGGRTYYADSVKGRFTISRDNSKNTLYLQMNSLRAEDTAVYYCARGGFGGGDYWGQGTLVTVSS VL: DIQMTQSPSSVSASVGDRVTITCRASQGISSWLAWYQHKPGKAPKLLIYAASSLQSGVPSRFSGSGSGTDFTLTISSLQPEDFATYYCQQANSFPLTFGGGTKVEIK | 280000 |  | 
 |  | 26D5-75214-343-F06-Fab-SHORT: antibody Fab fragment; VH SEQ ID NO: 53, VL SEQ ID NO: 85; sequence in Table 3 (antibody, V domains shown) VH: EVQLVESGGGLIQPGGSLRLSCAASGFTVSSNAMSWVRQAPGKGLEWVSFIYPGGRTYYADSVKGRFTISRDNSKNTLYLQMNSLRAEDTAVYYCARAGFGGPDYWGQGTLVTVSS VL: DIQMTQSPSSVSASVGDRVTITCRASQGISSNLAWYQQKPGKAPKLLIYAASSLQSGVPSRFSGSGSGTDFTLTISSLQPEDFATYYCQQANEFPLTFGGGTKVEIK |  | 75.5 | KinExA Ka [3]: 600000 M⁻¹ s⁻¹; Kd [3]: 0.015 nM
 |  | 9C8-VGSKE-Fab-LONG: antibody Fab fragment; VH SEQ ID NO: 78, VL SEQ ID NO: 96; sequence in Table 3 (antibody, V domains shown) VH: QVQLQESGPGLVKPSETLSLTCAVSGYSISSGYYWGWIRQPPGKGLEWIGSIYHSGNTYYSPSLQSRVTISVDTSKNQFSLKLSSVTAADTAVYYCARGGDFDILTGYYKGWFEPWGQGTLVTVSS VL: AIQLTQSPSSLSASVGDRVTITCRASQGISSALAWYQQKPGKAPKLLIYDASSLESGVPSRFSGSGSGTDFTLTISSLQPEDFATYYCQQFNSYPQTFGQGTKVEIK |  |  | Ka ([1]; 25° C.): 400000 M⁻¹ s⁻¹; koff, dissociation rate constant ([1]; 25° C.): 0.00087 s⁻¹; Kd ([1]; 25° C.): 2.1 nM
